US20090074657A1 (IMMUNE PHARMACEUTICALS, published 2009)

B1: murine monoclonal anti-ferritin antibody AMB8LK (antibody, V domains shown)
VH: QVQLKESGPGLVAPSQSLSITCTVSGFSLSRYSVHWVRQPPGKGLEWLGTIWGGGSTDYNSVLKSRLSISKDNSKSQVLLKVNSLQTDDTAIYYCASGPYYYTMDYWGQGTSVTVSS
VL: QIVLTQSPAILSASLGEEITLTCSASSSVTFMHWYQQKSGTSPKLLIYTTSNLASGVPSRFSGSGSGTFYSLTISSVEAEDAADYYCHQWSSYPTFGSGTKLEIKR
notes: also called unconjugated AMB8LK; native antibody
B2: Bz-DOTA-AMB8LK (antibody, V domains shown)
VH: B1 VH
VL: B1 VL
modifications: about 3.2 Bz-DOTA chelates per antibody (pSCN-Bz-DOTA conjugation; sites not stated); 111In or 90Y in the radioimmunoassays
notes: also called DOTA-conjugate; 111In-DOTA-AMB8LK
B3: Bz-DTPA-AMB8LK (antibody, V domains shown)
VH: B1 VH
VL: B1 VL
modifications: about 3 Bz-DTPA chelates per antibody (pSCN-Bz-DTPA conjugation; sites not stated); 111In or 90Y in the radioimmunoassays
notes: also called DTPA conjugate; 111In-DTPA-AMB8LK
B4: Bz-CHX-A″-DTPA-AMB8LK (antibody, V domains shown)
VH: B1 VH
VL: B1 VL
modifications: about 3 Bz-CHX-A″-DTPA chelates per antibody (pSCN-Bz-CHX-A″-DTPA conjugation; sites not stated); 111In or 90Y in the radioimmunoassays
notes: also called CHX-DTPA-AMB8LK; CHX-DTPA

Assays:
[1] = molecular target: human ferritin (human, UniProt P02794 2-183; P02792 2-175, limits assumed); experiment: method not stated
Chain of human ferritin (P02794 2-183 limits assumed, chain 1 of 2): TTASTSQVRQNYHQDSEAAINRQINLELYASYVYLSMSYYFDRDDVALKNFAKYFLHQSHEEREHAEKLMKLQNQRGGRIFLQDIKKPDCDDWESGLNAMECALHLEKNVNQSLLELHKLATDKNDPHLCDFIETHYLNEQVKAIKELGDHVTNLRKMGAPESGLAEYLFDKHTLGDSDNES
Chain of human ferritin (P02792 2-175 limits assumed, chain 2 of 2): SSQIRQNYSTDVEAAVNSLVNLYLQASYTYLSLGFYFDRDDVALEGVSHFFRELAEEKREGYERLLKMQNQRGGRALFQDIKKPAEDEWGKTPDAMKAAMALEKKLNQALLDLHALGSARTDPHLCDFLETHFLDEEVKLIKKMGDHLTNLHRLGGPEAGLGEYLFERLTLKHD

[2] = molecular target: T1, ferritin in fixed and permeabilized CAPAN-1 cells (human, UniProt P02794 1-183; P02792 2-175); experiment: Lindmo assay on fixed and permeabilized CAPAN-1 cells, 111In-labelled conjugate
T1 construct: whole, on cells; Endogenous ferritin, over-expressed by CAPAN-1 cells; The cells were fixed and permeabilized, so the ferritin reached is inside the cells; also called cells expressing ferritin
T1 sequence (P02794 whole entry, chain 1 of 2): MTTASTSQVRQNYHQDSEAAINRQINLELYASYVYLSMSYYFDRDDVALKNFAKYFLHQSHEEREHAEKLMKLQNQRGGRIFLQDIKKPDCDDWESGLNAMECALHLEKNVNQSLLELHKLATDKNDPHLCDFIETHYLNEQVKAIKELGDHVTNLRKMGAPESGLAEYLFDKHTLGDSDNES
T1 sequence (P02792 2-175, chain 2 of 2): as the sequence (P02792 2-175 limits assumed, chain 2 of 2) above
Method: Immunoreactivity of the immunoconjugates was assessed on cells expressing ferritin using the method described by Lindmo et al Determination of the immunoreactive fraction of radiolabeled monoclonal antibodies by linear extrapolation to binding at infinite antigen excess. J Immunol Methods 1984; 72 (1):77-89.
The CAPAN-1 cells are a relevant model for human pancreatic cancer (Kyriazis et al Human pancreatic adenocarcinoma line Capan-1 in tissue culture and the nude mouse:morphologic, biologic, and biochemical characteristics. Am J Pathol 1982; 106(2):250-60.). This cell line was established from a liver metastasis of a human pancreatic ductal adenocarcinoma, is tumorigenic and metastatic in nude mice and over-expresses ferritin. […] CAPAN-1 cells were grown in RPMI, 10% foetal calf serum and 2 mM L-glutamine. Cells were harvested at 70-85% confluence using trypsin, washed and resuspended in PBS-0.5% BSA. They were then fixed and permeabilized using the Intrastain kit (rako) following the manufacturer's instructions. Cells were diluted in PBS-0.5% BSA at concentrations ranging from 1.25×10⁵ to 12×10⁶ cells/ml and 500 μl of these suspensions were incubated with a fixed amount of ¹¹¹In-labeled-Ab (250 μl, 50 ng/ml, approximately 100,000CPM) for 2 hours at room temperature under agitation. Suspensions were centrifuged at 5,000×rpm for 5 minutes, the cells were washed with PBS-BSA and the activity in the pellets was counted. Nonspecific binding was determined by co-incubation of the radiolabelled-antibody with a 1.000-fold excess of cold antibody. The total radioactive counts added to each tube were divided by the cell-bound counts after subtraction of the non-specifically bound counts. These values were plotted against the reciprocal of cell dilution. After linear regression analysis, the immunoreactive fraction was obtained from the reciprocal of the intercept on the y-axis.

[3] = molecular target: T2, human liver ferritin (Calbiochem) (human, UniProt P02794 2-183; P02792 2-175); experiment: solid-phase radioimmunoassay, ferritin immobilised at 5 µg/ml on tubes, 90Y-labelled conjugate
T2 construct: Natural ferritin is a multimer of acidic (H) and basic (L) subunits; Adsorbed on plates or tubes in the assays; also called pure ferritin
T2 sequence (P02794 2-183 limits assumed, chain 1 of 2): as the sequence (P02794 2-183 limits assumed, chain 1 of 2) above
T2 sequence (P02792 2-175 limits assumed, chain 2 of 2): as the sequence (P02792 2-175 limits assumed, chain 2 of 2) above
Method: (§1) A solid-phase radioimmunoassay was performed using ¹¹¹In- and ⁹⁰y-labelled antibodies. Maxisorp tunes (Nunc) were incubated overnight at 4° C. with 1.5 to 10 μg/ml ferritin in PBS. After washing, they were blocked by PBS-0.5% BSA for 2 hours at room temperature. 6.25×10³, 12.5×10³ and 25×10³CPM (200 μl) of the antibodies were added in the coated tubes. The activity in each tube was counted in the gamma counter, then the tubes were washed three times with PBS-0.4% Tween-20 and the remaining activity counted. The difference between activities with and without the radiolabelled-antibody solutions indicated the percentage of bound-antibody. For evaluation of non specific binding to ferritin, a 100-fold excess of unconjugated antibody was added to the most concentrated radiolabelled-antibody solution. Non specific binding of the antibody was assessed on uncoated tubes. […] These binding percentages were calculated taking into account small differences in the labelling efficiencies of the three compounds on the day of the experiment.
(§2) ^aFerritin was immobilised at 5 μg/ml on tubes, then the indium or yttrium conjugated antibodies were incubated at three dilutions ([…]) Results are expressed as the mean of the percentage of bound antibody after washing the tubes. Non specific binding of the antibodies were less than 2%. ^bFive serial dilutions of fixed and permeabilized CAPAN-1 cells were incubated with the three radiolabelled compounds. After washing, the activity bound to the cells was counted in a gamma counter. Results were analysed using the GraphPad software; linear regression analysis of (Total CPM/Bound CPM) = f(cells dilution) were very accurate with r² > 0.99 for all three conjugates.

[4] = molecular target: T2, human liver ferritin (Calbiochem); experiment: solid-phase radioimmunoassay, ferritin immobilised at 5 µg/ml on tubes, 111In-labelled conjugate
Method: as §1, §2

Binder | Kd [1] [nM] | immunoreactivity (immunoreactive fraction) [2] [%] | immunoreactivity (percentage of bound antibody) [3] [%] | immunoreactivity (percentage of bound antibody) [4] [%]
B1 | 5.1 |  |  | 
B2 |  | 24 | 73.2 | 76.8
B3 |  | 52 | 100 | 87
B4 |  | 43 | 98.9 | 74.8
